Consider one substance from patent publication US20090252749A1.

This test concerns the target B7 protein on the antigen presenting cell (Daudi B cells). Description: cell-based or functional assay.

Values joined by “and” are separate entries in the source; they are usually repeats but may differ in a detail not shown here. Equal values may be shown once.

As for CTLA4^A29YL104E-Ig (Fc fusion), the EC50 (ng/mL), human IL-2 promoter mediated luciferase activity is 19.1 ng/mL and 21.5 ng/mL and 21.8 ng/mL; the Lower Asymptote (CPS), human IL-2 promoter mediated luciferase activity was 27000 CPS and 30000 CPS and 29000 CPS; the Upper Asymptote (CPS), human IL-2 promoter mediated luciferase activity was 81000 CPS and 85000 CPS and 88000 CPS.
